The text below walks through data of patent US20250027068.

First the molecules themselves.
B1: PRT-598 (protein)
chain: MANQEIRYSEETPSTITSVWTKGVTPPTDFIQNEDVLHAPYIANQGWYDITKTFNGKDDLLCGAATAGNMLHWWFDQNKEQIENYLKKHPEKQKINFNGEQMFDVKEAIDTKDSQTDSALFEYFKDKAFPYLSTKHLGVFPDHVIDMFINGYRLSLTNHGPTPVKRGTKDPRGGIFDAVFTRGDQSKLLTSRHDFKEKTLNEISDLIKQELTEGKALGLSHTYANVRINHVINLWGADFNAEGNLEAIYVTDSDSNASIGMKKYFVGVNSAGKVAISAKEIEGDNIGAQVLGLFTLSTGQDIWNQTNLEHHHHHH
B2: PRT-477 (protein)
chain: MVTSVWTKGVTPPTNFTYGEDVLHAPYVANQGWYDITKTFNGKDDLLCGAATAGNMLHWWFDQNKEQIENYLKKHPEKQKINFNGEQMFDVKEAIDTKDSQLDSKLFEYFKEKAFPYLSTKHLGVFPDHVIDMFINGYRLSLTNHGPTPVKRGSKDPRGGIFDAVFTRGDQSKLLTNRHDLKNKTLKEISDLIKQELTEGKALGISHTYANVRINHVINLWGADFDAEGNLEAIYVTDSDSNASIGMKKYFVGVNSNGKVAISAKEIEEDNIGAQVLGLFTLSTGQDIWNQTNLEHHHHHH
B3: PRT-416 (protein)
chain: MTITSVWTKGVTPPTPEDFRYNNEDVLHAPYVANQGWYDITKTFDGKDNLLCGAATAGNMLHWWFDQNKEEIERYLKKHPEKQKIIFNNQELFDVKAAIDTKDSQTNSKLFNYFRDKAFPNLSARQLGVMPDLVLDMFINGYYLNLPKTQSTDVNRPYQDKDKRGGIFDAVFTRGDQTTLLTARHDLKNKGLNEISDLIKQELTEGKALALSHTYANVRINHVINLWGADFDAEGNLIAIYVTDSDANASIGMKKYFVGVNANGKVAISAKKIEGDNIGAQVLGLFTLSTGQDIWQKLS
B4: PRT-424 (protein)
chain: MTITSVWTKGVTPPTPEDFRYNNEDVLHAPYVANQGWYDITKTFDGKDNLLCGAATAGNMLHWWFDQNKEEIERYLKKHPEKQKIIFNNQELFDVKAAIDTKDSQTNSKLFNYFRDKAFPNLSARQLGVMPDLVLDMFINGYYLNLGKTQSTDVNRPYQDKDKRGGIFDAVFTRGDQTTLLTARHDLKNKGLNEISDLIKQELTEGKALALSHTYANVRINHVINLWGADFDAEGNLIAIYVTDSDANASIGMKKYFVGVNANGKVAISAKKIEGDNIGAQVLGLFTLSLGQDIWQKLS
B5: PRT-602 (protein)
chain: MANQEIRYSEVTPYHITSVWTKGVTPPANFTQGEDVFHAPYVANQGWYDITKTFNGKDDLLCGAATAGNMLHWWFDQNKDQIERYLEEHPEKQKINFNGEQMFDVKEAIDTKDSQTDSKLFEYFKEKAFPYLSTKHLGVFPDHVIDMFINGYRLSLTNHGPTPVKEGSKDPRGGIFDAVFTRGDQSKLLTSRHDFKEKTLKEISDLIKQELTEGKALGLSHTYANVRINHVINLWGADFDSEGNLKAIYVTDSDSNASIGMKKYYVGVNSAGKVAISAKEIEEDNIGAQVLGLFTLSTGQDIWNQTNLEHHHHHH
B6: PRT-486 (protein)
chain: MVTSVWTKGVTPPTDFIKGEDVFHAPYKAGQGWYDITKTFNGKDNLLCGAATAGNMLHWWFDQNKDQIERYLKEHPEKQKIIFNNQELFDLKAAIDTKDSQTDSKLFEYFKEKAFPYLSTKHLGVFPDHVLDMFINGYRLSLTNHGPTPVKEGSKDKRGGIFDAVFTRGVQSKLLTSRHDFKEKTLKEISDLIKQELTEGKALGLSHTYANVRINHVINLWGADFDSEGNLKAIYVTDSDTNASIGMKKYFVGVNSAGKVAISAKEIKEDNIGAQVLGLFTLSTGQDIWNQTNLEHHHHHH
B7: PRT-479 (protein)
chain: MITSVWTKGVTPPTDFIYGEDVLHAPYKAGQGWYDITKAFDGGDDLLCGAATAGNMLHWWFDQNKEQIENYLKKHPEKQKINFNGEQMFDVKEAIDTKDSQTNSELFNYFKEKAFPYLSTKHLGVFPDHVIDMFINGYRLSLTNHGPTPVKRQEKDPRGGIFDAVFGRGDQTKLLTNRHDLKNKTLNEISQLIKQELTEGKALGISHTYANVRINHVINLWGADFDAEGNLEAIYVTDSDSNASIGMKKYFVGVNSNGKVAISAKEIEEDNIGAQVLGLFTLSTGQKIWNKTNLEHHHHHH
B8: PRT-467 (protein)
chain: MITSVWTKGVTPPTDFIKGEDVFHAPYKAGQGWYDITKAFDGGDDLLCGAATAGNMLHWWFDQNKDQIERYLKEHPEKQKINFNGEQMFDVKEAIDTKDSQTNSELFNYFKEKAFPYLSTKHLGVFPDHVLDMFINGYRLSLTNHGPTPVKRQEKDPRGGIFDAVFGRGDQTKLLTSRHDLKNKTLNEISQLIKQELTEGKALGLSHTYANVRINHVINLWGADFDAEGNLEAIYVTDSDSNASIGMKKYFVGVNSAGKVAISAKEIKEDNIGAQVLGLFTLSTGQKIWNKTNLEHHHHHH
B9: PRT-408 (protein)
chain: MVTSVWTKGVTPPADFTQGEDVFHAPYVANQGWYDITKTFNGKDDLLCGAATAGNMLHWWFDQNKEYIEAYLKKHPEKQKIMFGDQELLDVRKAINTKGSQKNSELFNYFRDKAFPNLSARRLGVFPDLVLDMFINGYYLNVTKTQTTDVNRTYQEKDKRGGIFDAVFTRGDQSKLLTSRHDFKEKGLKEISDLIKQELTEGKALGLSHTYANVRINHVINLWGADFDSDGNLKAIYVTDSDSNASIGMKKYFVGVNSAGKVAISAKEIKEDNIGAQVLGLFTLSTGQDIWNQTN
B10: PRT-442 (protein)
chain: MSQTEDSESLQRLRDIEDFQAEKKKQNVVYTKWLDGVDVKDHDFRKIVDGNIAYYATPLLNGRGFYDINKDFNRDNDKCAAAVAANMFHYWLDRNRDNVDRFLRQNPEKHGIIELPDGQLKLSDFLNTYESDDGYRDKSKLFDFISNNFNGPVWTDKLLDNYINGYAYNYKYGRTIEDPTKNTSKINFFKEVFNEKILTNNHSIRNQNEFSVLLSEALYTGKAIGLSYGPAGLRHSLGHIISVWGADLDADGNVVAIYVTDSDDKKLTIGDERVGLKRYKISTDDEGRLRLTAYEETHNTGGQIRGLWTLDTGKQAWADYFDKTEQTGTDQAEQ
B11: PRT-434 (protein)
chain: MSQTEDSESLQRLRDIEDFQAEKKKQNVVYTKWLDGVDVKDHDFRKIVDGNIAYYATPLLNGRGFYDINKDFNRDSDKCAAAVAANMFHYWLDRNRDNVDRFLRQNPEKHGIIELPDGQLKLSDFLNTYESDDGYRDKSKLFDFISNNFNGPVWTDKLLDNYINGYAYNYKYGRTIEDPTKNTSKINFFKEVFNEKILTNNHSIRNQNEFSVLLSEALYTGKAIGLSYGPAGLRHGLGHIISVWGADLDADGNVVAIYVTDSDDKKLTIGDERVGLKRYKISTDDEGRLRLTAYEETHNTGGQIRGLWTLDTGKQAWADYFDKTEQTGTDQAEQ
B12: PRT-433 (protein)
chain: MSQTEDSESLQRLRDIEDFQAEKKKQNVVYTKWLDGVDVKDHDFRKIVDGNIAYYATPLLNGRGFYDINKDFNRDSDKCAAAVAANMFHYWLDRNRDNVDRFLRQNPEKHGIIELPDGQLKLSDFLNTYESDDGYRDKSKLFDFISNNFNGPVWTDKLLDNYINGYAYNYKYGRTIEDPTKNTSKINFFKEVFNEKILTNNHSIRNQNEFSVLLIEALYTGKAIGLSYGPAGLRHSLGHIISVWGADLDADGNVVAIYVTDSDDKKLTIGDERVGLKRYKISTDDEGRLRLTAYEETHNTGGQIRGLWTLDTGKQAWADYFDKTEQTGTDQAEQ

This data set has as its target pooled human IgG (human IgG1, 2, 3 and 4).
Regarding B1, the Enzyme Activity Endpoint Assay (purified): Fab'2 was found to be 567 ng/µL, the Enzyme Activity Endpoint Assay (purified): Fc turned out to be 172 ng/µL, the Enzyme Activity Endpoint Assay (purified): IgG stood at 0 ng/µL and the Enzyme Activity Endpoint Assay (purified): scIgG is 213 ng/µL. The protein also yielded an Enzyme Activity Endpoint Assay: Fab′2 of 567 ng/µL, an Enzyme Activity Endpoint Assay: Fc of 172 ng/µL, an Enzyme Activity Endpoint Assay: IgG of 0 ng/µL and an Enzyme Activity Endpoint Assay: scIgG of 213 ng/µL.
B2 registered an Enzyme Activity Endpoint Assay: Fab′2 of 543 ng/µL, an Enzyme Activity Endpoint Assay: Fc of 277 ng/µL, an Enzyme Activity Endpoint Assay: IgG of 0 ng/µL and an Enzyme Activity Endpoint Assay: scIgG of 224 ng/µL.
For B3 the same measures were 125 ng/µL, 258 ng/µL, 96 ng/µL and 453 ng/µL.
For B4 the same measures were 618 ng/µL, 348 ng/µL, 88 ng/µL and 0 ng/µL.
B5 showed an Enzyme Activity Endpoint Assay (purified): Fab'2 of 543 ng/µL, an Enzyme Activity Endpoint Assay (purified): Fc of 375 ng/µL, an Enzyme Activity Endpoint Assay (purified): IgG of 0 ng/µL and an Enzyme Activity Endpoint Assay (purified): scIgG of 212 ng/µL. This protein also yielded an Enzyme Activity Endpoint Assay: Fab′2 of 543 ng/µL, an Enzyme Activity Endpoint Assay: Fc of 375 ng/µL, an Enzyme Activity Endpoint Assay: IgG of 0 ng/µL and an Enzyme Activity Endpoint Assay: scIgG of 212 ng/µL.
In the case of B6, the Enzyme Activity Endpoint Assay: Fab′2 is 145 ng/µL, the Enzyme Activity Endpoint Assay: Fc came to 210 ng/µL, the Enzyme Activity Endpoint Assay: IgG was found to be 107 ng/µL and the Enzyme Activity Endpoint Assay: scIgG was found to be 627 ng/µL.
In turn, B7 displayed an Enzyme Activity Endpoint Assay: Fab′2 of 1340 ng/µL, an Enzyme Activity Endpoint Assay: Fc of 481 ng/µL, an Enzyme Activity Endpoint Assay: IgG of 0 ng/µL and an Enzyme Activity Endpoint Assay: scIgG of 0 ng/µL.
As to B8, the Enzyme Activity Endpoint Assay: Fab′2 is 685 ng/µL, the Enzyme Activity Endpoint Assay: Fc amounted to 374 ng/µL, the Enzyme Activity Endpoint Assay: IgG was 57 ng/µL and the Enzyme Activity Endpoint Assay: scIgG was 375 ng/µL.
For B9 the same measures were 564 ng/µL, 334 ng/µL, 179 ng/µL and 0 ng/µL.
For B10 the same measures were 18 ng/µL, 169 ng/µL, 680 ng/µL and 381 ng/µL.
The protein B11 came in with an Enzyme Activity Endpoint Assay (purified): Fab′2 of 567 ng/µL, an Enzyme Activity Endpoint Assay (purified): Fc of 314 ng/µL, an Enzyme Activity Endpoint Assay (purified): IgG of 0 ng/µL and an Enzyme Activity Endpoint Assay (purified): scIgG of 234 ng/µL. This protein yielded an Enzyme Activity Endpoint Assay: Fab′2 of 567 ng/µL, an Enzyme Activity Endpoint Assay: Fc of 314 ng/µL, an Enzyme Activity Endpoint Assay: IgG of 0 ng/µL and an Enzyme Activity Endpoint Assay: scIgG of 234 ng/µL.
As to B12, the Enzyme Activity Endpoint Assay (purified): Fab′2 turned out to be 575 ng/µL, the Enzyme Activity Endpoint Assay (purified): Fc amounted to 489 ng/µL, the Enzyme Activity Endpoint Assay (purified): IgG is 0 ng/µL and the Enzyme Activity Endpoint Assay (purified): scIgG came out at 224 ng/µL. For the same protein, the Enzyme Activity Endpoint Assay: Fab′2 was found to be 575 ng/µL, the Enzyme Activity Endpoint Assay: Fc worked out at 489 ng/µL, the Enzyme Activity Endpoint Assay: IgG was determined as 0 ng/µL and the Enzyme Activity Endpoint Assay: scIgG was 224 ng/µL.
